Measured values from US20030148417A1.

Tests used:
Test in all cases: cell-based or functional assay
[1] = biological target: bovine haemoglobin (bovine) (UniProt P01966)
[2] = biological target: native purified aspartic endoproteinase from cacao beans (TcAP2, 30.5 kDa polypeptide), size exclusion pool #57-64 (Theobroma cacao)
[3] = biological target: recombinant TcAP2 protein (aspartic endoproteinase from Theobroma cacao, secreted by Yarrowia lipolytica clone pCY330-33) (Theobroma cacao)

bovine haemoglobin (bovine), sequence (P01966 2-142, chain 1 of 2): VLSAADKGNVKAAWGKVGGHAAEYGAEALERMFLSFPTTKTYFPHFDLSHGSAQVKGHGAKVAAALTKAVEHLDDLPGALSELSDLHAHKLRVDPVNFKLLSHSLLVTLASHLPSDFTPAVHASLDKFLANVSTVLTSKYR
bovine haemoglobin (bovine), sequence (P02070 whole entry, chain 2 of 2, further chain): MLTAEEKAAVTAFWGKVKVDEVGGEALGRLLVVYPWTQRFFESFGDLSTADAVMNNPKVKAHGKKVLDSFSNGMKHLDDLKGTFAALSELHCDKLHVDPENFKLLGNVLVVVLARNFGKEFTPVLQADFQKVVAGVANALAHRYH
native purified aspartic endoproteinase from cacao beans (TcAP2, 30.5 kDa polypeptide), size exclusion pool #57-64 (Theobroma cacao), sequence (chain, as listed by the source limits assumed, form in doubt): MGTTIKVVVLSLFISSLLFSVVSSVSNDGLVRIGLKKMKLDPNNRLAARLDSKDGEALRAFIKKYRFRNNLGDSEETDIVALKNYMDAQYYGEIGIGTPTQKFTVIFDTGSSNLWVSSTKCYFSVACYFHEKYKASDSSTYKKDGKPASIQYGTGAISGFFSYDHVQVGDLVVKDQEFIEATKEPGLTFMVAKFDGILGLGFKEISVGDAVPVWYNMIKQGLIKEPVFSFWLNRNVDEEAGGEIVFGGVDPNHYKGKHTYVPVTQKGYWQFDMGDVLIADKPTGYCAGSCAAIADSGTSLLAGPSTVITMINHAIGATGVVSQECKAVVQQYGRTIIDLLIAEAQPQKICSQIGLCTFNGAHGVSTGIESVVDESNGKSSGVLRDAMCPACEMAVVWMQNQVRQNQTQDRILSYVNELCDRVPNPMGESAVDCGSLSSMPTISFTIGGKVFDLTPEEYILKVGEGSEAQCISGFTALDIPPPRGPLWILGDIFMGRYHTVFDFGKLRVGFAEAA

| Substance | hydrolysis of bovine haemoglobin, activity at pH 3 without inhibitor (taken as 100%) (pmoles L-leucine produced/min/mg protein) [1] | Remaining Activity % (hydrolysis of bovine hemoglobin, 0.002 mM Pepstatin A) [2] | pepstatin insensitive activity (hydrolysis of bovine haemoglobin, 2 µM pepstatin), percent of uninhibited activity [3] |
| --- | --- | --- | --- |
| recombinant TcAP2 protein (aspartic endoproteinase from Theobroma cacao, secreted by Yarrowia lipolytica clone pCY330-33) (enzyme) | 28.8 |  |  |
| Pepstatin A (peptide) |  | 0% | 6.65% |
